Source: article PMC12503259, “Establishment of an in vivo analytical method for detecting total anti-UFH activity and pharmacokinetic study in PS and R15 in rats” (PLOS One, 2025)

Key:
[1] = Stability in rat plasma after three freeze-thaw cycles; type: in vitro ADME; conditions: for RE%: plasma sample, freeze-thaw three cycles in -20℃, n=6; for Measured concentration after storage, Mean ± SD / RE (%) versus nominal concentration: rat plasma, three freeze (−80°C)-thaw (25°C) cycles; for Measured concentration after storage, Mean ± SD: n = 6
Protocol: Processing of Plasma Samples: 100 μL of the unknown plasma sample was added to 500 μL of 75% methanol (methanol: water = 75:25, v/v) and vortex-mixed for 5 seconds. The mixture was then centrifuged at 12,000 r/min for 10 minutes at 25°C. The supernatant (500 μL) was collected and dried under nitrogen at 60°C. Subsequently, UFH (0.14 U·mL^-1 for PS and 0.15 U·mL^-1 for R15; 120 μL) was added, and the mixture was vigorously shaken at room temperature for 10 minutes. The residual UFH content was measured using the Heparin Anti-FXa assay kit.
The detailed procedure is as follows: Accurately pipette 40 μL of the sample into a 96-well plate. Place the plate in a microplate shaker. Using a multichannel pipette, add 40 μL of reagent R1 and mix by shaking. Incubate at 37 °C for exactly 3 minutes (start timing upon addition of R1; at 50 seconds, begin shaking with the microplate shaker for 1 minute, then place the plate in the incubator). Remove the 96-well plate from the incubator and place it on the open microplate shaker. Using a multichannel pipette, add 40 μL of reagent R2 to each well and incubate at 37 °C for 6 minutes (after adding R2, at 3 minutes and 50 seconds, open the microplate shaker and shake for 4 minutes, then return the plate to the incubator). Remove the 96-well plate from the incubator and place it on the open microplate shaker. Quickly add 40 μL of reagent R3 using a multichannel pipette and shake until 9 minutes and 10 seconds. At 9 minutes and 30 seconds, add 80 μL of 20% acetic acid to each well to terminate the reaction. Measure the absorbance at 405 nm using a microplate reader (Multiskan FC, Thermo Fisher US).
Two concentration levels (low and high QC) were evaluated for validation of storage stability and freeze/thaw stability. Two concentration levels of PS and R15 (low and high QC) in blank rat plasma were prepared (n = 6), respectively. Samples in rats’ plasma were determined after storage at room temperature (25°C ± 1°C) for 30 min. […] Stock solution of PS and R15 were stored at 4°C for a week. All the samples mentioned above were processed by calibration curves with adequate QC samples diluted from newly prepared stock solution of PS and R15, followed by procedure of sample determination (see “Sample Preparation”), respectively.

complement = conditions: under UFH excess; cited from earlier work
From the text: PS and UFH-PS complexes activate complement. Complement fragments can accumulate in the pulmonary microcirculation, up-regulate endothelial adhesion molecules, and recruit neutrophils and monocytes, forming inflammatory microthrombi.

[2] = clinical use; cited from earlier work
From the text: PS is a cationic protein mixture with a molecular weight of 4000–6000 Da, and is the only heparin antagonist approved for clinical use. PS is primarily extracted from the sperm of wild salmon species, and this cationic protein binds to the anionic heparin, forming a UFH-PS complex that neutralizes the activity of heparin [7–10]. However, PS is associated with several adverse reactions in clinical applications, such as systemic hypotension, pulmonary hypertension, and allergic reactions. Despite extensive exploration of its mechanisms, the underlying causes of PS-related a ...

Question: What does the source list for Protamine sulfate [PS]?
Answer: RE% ([1]; nominal 0.70 μg/mL): 10.71%; RE% ([1]; nominal 1.50 μg/mL): 5.78%; Measured concentration after storage, Mean ± SD ([1]; nominal 0.7 μg·mL^-1, anti-FXa read-out at 405 nm): 0.78 ± 0.02 µg/mL; RE (%) versus nominal concentration ([1]; nominal 0.7 μg·mL^-1, n = 6): 10.71%; Measured concentration after storage, Mean ± SD ([1]; nominal 1.5 μg·mL^-1, anti-FXa read-out at 405 nm): 1.59 ± 0.04 µg/mL; RE (%) versus nominal concentration ([1]; nominal 1.5 μg·mL^-1, n = 6): 5.78%; complement activation by UFH-PS complex relative to UFH–R15 complex (complement): 8.28 fold; rate of mild adverse reactions [2]: ≤ 16%
